From the supplement of paper PMC9170038

Assays:
MS2 coat protein [1] = test: apparent KD of MS2 coat protein, switch OFF state (with FMN for OFF switches, without FMN for ON switches); designed switch direction (-1 OFF switch, 1 ON switch): 1; higher = weaker reporter binding; details: FMN input: 0 or 200 uM; Eterna round: R93 (includes R88 designs)
Method in brief: (§1)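 Apparent KD per design is the median of normalised cluster binding-curve fits. Designed RNA switches transcribed on-chip from Illumina sequencing clusters were titrated with SNAP-549-labelled MS2 coat protein in twofold steps from 0.7 or 1.5 nM to 3 µM, with 0.8–1.5 h down to 10–20 min per step. Buffer: 100 mM Tris-HCl pH 7.5, 80 mM KCl, 4 mM MgCl2, without or with constant ligand.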

MS2 coat protein [2] = test: apparent KD of MS2 coat protein, switch ON state; designed switch direction (-1 OFF switch, 1 ON switch): 1; higher = weaker reporter binding; details: FMN input: 0 or 200 uM; Eterna round: R93 (includes R88 designs)
Method in brief: as §1

| Sequence | apparent KD of MS2 coat protein (MS2 coat protein [1]) [µM] | apparent KD of MS2 coat protein (MS2 coat protein [2]) [µM] |
| --- | --- | --- |
| AAAUAAAUGACUGAGGAUAUGUCGAAGAAAACAUGAGGAUCACCCAUGUGAUAAUAAAAAGGGUGAUAGAAGGUAGUCAACAAAC [Mod 10 of Pariah 4 by Hyphema in Round 1] | 0.262 | 0.323 |
| AAAUAACAUGAGGAUCACCCAUGUCAAAUAAAUCGAGGAUAUGGGCCCGAGUUCCGGGAGCCAGAAGGCGAAAAGA [Ceusrete] | 0.0517 | 0.0289 |
| AAAUAACAUGAGGAUCACCCAUGUCAAAUAAAUCGAGGAUAUGGGCCCGGGUUCCGGAAGCCAGAAGGCGAAAAGA [Diareslera] | 0.0551 | 0.0249 |
| AAAUAACAUGAGGAUCACCCAUGUUACAACAUUACAGGAUAUGUGGGUGAAAAUAGCAUGACAGAAGGGUACUGUA [SameState1 Malc#34] | 0.393 | 0.479 |
| AAAUAACAUGAGGAUCACCCAUGUUGCAACGGUUGAGGAUAUGUGGGUGAAAAUAGCAUGGCAGAAGGCGAGUGUA [SameState1 Malc#27] | 0.0319 | 0.0581 |
| AAAUGACAUGAGGAUCACCCAUGUCCACCAAACGGAGGAUAUUGGGCGGCAAAACGUUGUUAAGAAGGCCGAAAAA [SS1-1.1] | 0.028 | 0.06 |
| AACAAACAUGAGGAUCACCCAUGUCAAACAUACCAAGGAUAUGGGAGACGAGACUCGUCACCAGAAGGUGGAAAUU [Maatce] | 0.123 | 0.106 |
| AACAACAAUAUGAAGGAUAUCCACAACAAGACAUGAGGAUCACCCAUGUAAACAAAGAACAUACAGGAGAAGGUCAAGGGUGAAA [JR_SS002_Sub1203] | 0.039 | 0.0562 |
| AACAAUCUAUCUGAGGAUAUCAUGUCAAAGACAUGAGGAUCACCCAUGUGCAGGAAAACUGCAUAUGAGAAGGCAGAUAGAUUGA [SS2 :P - 599] | 0.13 | 0.217 |
| AACAAUCUAUCUGAGGAUAUGUGUCAAAAGACAUGAGGAUCACCCAUGUAAAAACAUGAAAAGACACAGAAGGCAGAUAGAUUGA [SS2: 1153] | 0.0442 | 0.0214 |
| AACAAUCUAUCUGAGGAUAUGUGUCGAAAGACAUGAGGAUCACCCAUGUGAAAACAUGAAAAGACACAGAAGGCAGAUAGAUUGA [SS2: 1154] | 0.0415 | 0.0402 |
| AACAGACAUGAGGAUCACCCAUGUAGAAUUAUGGGAGGAUAUACAAAGACGAGAGUCAGAGUAGAAGGCCUAGGAC [salish99-ss1-163] | 0.0712 | 0.02 |
| AACAUACAUGAGGAUCACCCAUGUUCCGGCAGGGCAGGAUAUCCAUCGAAAGUGUUAUAAGGAGAAGGGCCAUAAA [JR_SS001_Sub013] | 0.0933 | 0.0317 |
| AACAUACAUGAGGAUCACCCAUGUUUAUAAAAACAAGGAUAUAUAAGAACAAACAAACAAAUAGAAGGUGUAAAAA [Default title] | 0.0172 | 0.0234 |
| AACCAACAUGAGGAUCACCCAUGUCAACCCAAGGCAGGAUAUGCGAGAAUAACAAUGGGAGCAGAAGGGCCGACCU [ss1-3] | 0.0534 | 0.04 |
| AACCGCGCUAUACAGGAUAUCACAAUAUCGACAUGAGGAUCACCCAUGUGACUGGCACCAGUCGGUGAGAAGGGUGAAGUGCGGC [Tilemage] | 0.239 | 0.149 |
| AACUAACAUGAGGAUCACCCAUGUAUUCAAACAUGAGGAUAUAUAACACAUCAUCGACAGAUAGAAGGCAUAAAUA [JR_SS001_Sub1205] | 0.0785 | 0.0896 |
| AACUAACAUGAGGAUCACCCAUGUUGCAGCGGUUGAGGAUAUGUGGGUGAAAAUAGCAUGGCAGAAGGCGAGUGUA [SameState1 Malc#25] | 0.0522 | 0.0688 |
| AAGAAACAUGAGGAUCACCCAUGUAGAAAUAUGGGAGGAUAUACGAAGACGAAAGUCAAAGUAGAAGGCCUAAGAA [Mat - Same State 1 - Eli mod - D105] | 0.082 | 0.0363 |
| AAGAAACAUGAGGAUCACCCAUGUCAAGAGAGACAAGGAUAUCUGAAUUAAUUAAAUUAAGGAGAAGGUGUGAAAA [71%, Same state of confusion2, 1] | 0.253 | 0.201 |

| Sequence | apparent KD of MS2 coat protein (MS2 coat protein [1]) [µM] | apparent KD of MS2 coat protein (MS2 coat protein [2]) [µM] |
| --- | --- | --- |
| AAGAAACAUGAGGAUCACCCAUGUGAUAAUAUGGGAGGAUAUACGAAGACGAAAGACGAAGUAGAAGGCCUAAGAA [Garnet 46] | 0.138 | 0.0453 |
| AAGAAAGAAACAUAGGAUAUCAAGGAUAUAACAUGAGGAUCACCCAUGUAAAUACGAAAGUAUAAUGAGAAGGAUGGAUGAUCUUC [Meechl MS2 SS2] | 0.0449 | 0.0289 |
| AAGAAUUAAACGCAGGAUAUGUACCCACGUACAUGAGGAUCACCCAUGUGCCUAUAAGGGUCGAGGCAGAAGGGCGAUAUAGAAA [Reteriusge] | 0.0812 | 0.0158 |
| AAGAGAAGAACUGAGGAUAUCAGGGAUGGUACAUGAGGAUCACCCAUGUUGGCAAGCGAAGAAACUGAGAAGGCAGAGAAGAAGAA [JR_SameState2_Sub6] | 0.0343 | 0.0294 |
| AAGAGACAUGAGGAUCACCCAUGUAGGAUUAUGGGAGGAUAUACAAAGACGAGAGUCAGAGUAGAAGGCCUAGGAU [salish99-ss1-130(!)] | 0.0599 | 0.0215 |
| AAGAUACAUGAGGAUCACCCAUGUCGAGAGAGACGAGGAUAUCUGAAUCGAUUAGAUUACGGAGAAGGCGUGAAAA [LROPPY Same State 1 - v07_deltaG=1.9] | 0.0343 | 0.0194 |
| AAGAUACAUGAGGAUCACCCAUGUUUUGGUGGGUCAGGAUAUAAAAAGAAUGAGAGAAAGUUAGAAGGGACAAAGA [JR_SS001_Sub005] | 0.309 | 0.201 |
| AAGCAACAUGAGGAUCACCCAUGUAGCAGGGUCAGAGGAUAUUUGAUCUUGGCAAGGGUUAAAGAAGGUUGAUAAA [Rianqu] | 0.14 | 0.264 |
| AAGUCACAUGAGGAUCACCCAUGUCGUAAACGAUGAGGAUAUAGGAACGAAAGAAAAAAACUAGAAGGUAUAACAA [SameState1-03] | 0.0267 | 0.0288 |
| AAUAAACAUGAGGAUCACCCAUGUAAAUGGGCGAUAGGAUAUGCGAAAAUAAAGAAAGAAGCAGAAGGAUCGAAGA [Ex5 sub 3] | 0.0519 | 0.224 |
| AAUAAACAUGAGGAUCACCCAUGUAAAUGGGUACAAGGAUAUGCGAAAAGAAACAAAGAAGCAGAAGGUGUAAAGA [Ex5 sub 2] | 0.432 | 0.347 |
| AAUAAACAUGAGGAUCACCCAUGUAGAAACAUGGGAGGAUAUACAAAGACGAAAGUCAAAGUAGAAGGCCUAAAAA [Mat - Same State 1 - Mod - D168] | 0.329 | 0.15 |
| AAUAAACAUGAGGAUCACCCAUGUAGAAACAUGGGAGGAUAUACAAAGACGAAAGUCAAAGUAGAAGGCCUAAUAA [Mat - Same State 1 - Mod - D167] | 0.0424 | 0.0927 |
| AAUAAACAUGAGGAUCACCCAUGUAGAAAUAUGGGAGGAUAUACAAAGACGAAAGUCAAAGUAGAAGGCCUAAUAU [Mat - Same State 1 - Mod - D154] | 0.0647 | 0.0232 |
| AAUAAUUAUAUCGAGGAUAUCGGUAAUAAGACAUGAGGAUCACCCAUGUAAUAAGGUUAAAUAAACGAGAAGGCGAAGGGUGAAA [JR_SS002_Sub006] | 0.0492 | 0.0809 |
| AAUACACAUGAGGAUCACCCAUGUAGAAAGAAGGCAGGAUAUCAGAUCCACAUGUGAUAAUGAGAAGGGCCAAUAU [SS 1 Tesla 10] | 0.171 | 0.0219 |
| AAUAUAUUAAGUGAGGAUAUCAAAGAAAAAACAUGAGGAUCACCCAUGUGGGAAACCUGGUCGGGUGAGAAGGCACUUAAUAUAU [Samwise Clockwise 28 - Jieux - Same State 2] | 0.314 | 0.0313 |
| AAUAUAUUAAGUGAGGAUAUCGAGGAAAAAACAUGAGGAUCACCCAUGUGGGAAACAUGGUAGGGUGAGAAGGCACUUAAUAUAU [Samwise Clockwise 24 - Jieux - Same State 2] | 0.572 | 0.132 |
| AAUAUAUUAUCUGAGGAUAUCAUAGGAAAAACAUGAGGAUCACCCAUGUGGGAAACCUGGUCGGGUGAGAAGGUGGAUAAUAUAU [Samwise Clockwise 33 - Jieux - Same State 2] | 0.341 | 0.0587 |
